One assay deals with integrin alphaIIbbeta3 (human, UniProt P08514). As to the kind of experiment: ELISA. On the technique in general: ELISA stands for enzyme-linked immunosorbent assay.
A further assay deals with T1, integrin alphaVbeta5 (human, UniProt P06756).
T1 chain 1: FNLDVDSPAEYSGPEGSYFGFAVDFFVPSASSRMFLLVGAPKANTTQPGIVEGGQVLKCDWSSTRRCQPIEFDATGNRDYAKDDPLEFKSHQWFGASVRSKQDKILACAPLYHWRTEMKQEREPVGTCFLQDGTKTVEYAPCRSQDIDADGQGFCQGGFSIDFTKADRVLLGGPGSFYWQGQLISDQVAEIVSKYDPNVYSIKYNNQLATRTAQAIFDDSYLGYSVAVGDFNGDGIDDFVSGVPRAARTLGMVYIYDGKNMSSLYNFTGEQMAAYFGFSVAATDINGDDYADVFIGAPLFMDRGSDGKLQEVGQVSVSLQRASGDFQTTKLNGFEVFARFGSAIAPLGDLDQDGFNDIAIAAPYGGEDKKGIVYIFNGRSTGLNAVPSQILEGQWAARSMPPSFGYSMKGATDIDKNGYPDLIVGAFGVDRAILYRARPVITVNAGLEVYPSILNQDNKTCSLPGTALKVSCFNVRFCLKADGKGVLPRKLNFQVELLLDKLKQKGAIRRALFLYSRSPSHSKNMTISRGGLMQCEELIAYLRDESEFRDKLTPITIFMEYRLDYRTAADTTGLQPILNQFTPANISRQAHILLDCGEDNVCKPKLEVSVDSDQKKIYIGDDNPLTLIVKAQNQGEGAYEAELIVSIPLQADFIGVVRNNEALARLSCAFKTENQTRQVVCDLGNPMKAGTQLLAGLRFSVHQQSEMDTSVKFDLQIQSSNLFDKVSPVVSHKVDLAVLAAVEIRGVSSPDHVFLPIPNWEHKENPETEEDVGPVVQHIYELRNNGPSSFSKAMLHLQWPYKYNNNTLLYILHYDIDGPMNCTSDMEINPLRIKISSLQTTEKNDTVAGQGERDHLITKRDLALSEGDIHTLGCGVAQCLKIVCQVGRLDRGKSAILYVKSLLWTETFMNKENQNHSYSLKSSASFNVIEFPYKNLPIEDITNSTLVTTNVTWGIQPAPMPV
T1 chain 2: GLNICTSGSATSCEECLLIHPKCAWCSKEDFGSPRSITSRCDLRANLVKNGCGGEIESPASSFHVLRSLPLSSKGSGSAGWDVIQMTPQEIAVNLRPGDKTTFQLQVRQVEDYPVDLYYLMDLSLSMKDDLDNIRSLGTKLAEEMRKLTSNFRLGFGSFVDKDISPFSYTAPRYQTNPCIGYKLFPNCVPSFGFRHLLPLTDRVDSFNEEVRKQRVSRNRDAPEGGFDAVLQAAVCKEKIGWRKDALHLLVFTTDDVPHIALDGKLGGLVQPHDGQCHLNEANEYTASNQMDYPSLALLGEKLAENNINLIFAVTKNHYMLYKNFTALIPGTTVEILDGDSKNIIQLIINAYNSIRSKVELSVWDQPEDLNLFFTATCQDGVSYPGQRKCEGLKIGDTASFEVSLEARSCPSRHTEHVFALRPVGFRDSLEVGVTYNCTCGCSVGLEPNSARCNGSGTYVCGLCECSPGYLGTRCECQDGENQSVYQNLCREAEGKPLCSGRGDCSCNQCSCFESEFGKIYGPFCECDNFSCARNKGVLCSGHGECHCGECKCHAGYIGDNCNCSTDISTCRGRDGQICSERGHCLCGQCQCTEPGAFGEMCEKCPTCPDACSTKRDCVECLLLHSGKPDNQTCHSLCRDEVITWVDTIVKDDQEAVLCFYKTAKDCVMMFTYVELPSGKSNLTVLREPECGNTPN
As to the kind of experiment: ELISA.

B1: Vitaxin (antibody, V domains shown)
VH: QVQLVESGGGVVQPGRSLRLSCAASGFTFSSYDMSWVRQAPGKGLEWVAKVSSGGGSTYYLDTVQGRFTISRDNSKNTLYLQMNSLRAEDTAVYYCARHNYGSFAYWGQGTTVTVSS
VL: EIVLTQSPATLSLSPGERATLSCQASQSISNHLHWYQQRPGQAPRLLIKYRSQSISGIPARFSGSGSGTDFTLTISSLEPEDFAVYYCQQSGSWPHTFGGGTKVEIK
For the molecule B1, the binding result with integrin alphaIIbbeta3 and with integrin alphaVbeta5 was “no binding” in each case.

These data come from patent US20090023900 (published 2009).
